{"source": "patent US20150037340A1", "about": "(PEIRRE FABRE MEDICAMENT, published 2015)", "binders": {"B1": {"name": "1613F12 antibody (murine form) (antibody, V domains shown)", "VH": "EVHLQQSGAELVKPGASVKLSCTASGFNIRDTYIHWVKQRPEQGLEWIGRLDPANGHTKYGPNFQGRATMTSDTSSNTAYLQLSSLTSEDTAVYYCARGAYYYGSSGLFYFDYWGQGTTLSVSS", "VL": "DVQITQSPSYLATSPGETITINCRASKSISKYLAWYQEKPGKTNKLLIYSGSTLQSGVPSRFSGSGSGTDFTLTISSLEPEDFAMYFCQQHHEYPLTFGAGTELELK", "notes": "Whole murine monoclonal antibody purified from a hybridoma; a murine IgG1 (9G4) serves as its isotype control; also called m1613F12; monoclonal antibody 1613F12 derived from the hybridoma I-4505"}}, "biological_target": "T1, human protein Axl (cellular form on the cell surface) (human, UniProt P30530 26-894)", "T1 construct": "also called Axl receptor; membrane Axl receptor", "T1 sequence": "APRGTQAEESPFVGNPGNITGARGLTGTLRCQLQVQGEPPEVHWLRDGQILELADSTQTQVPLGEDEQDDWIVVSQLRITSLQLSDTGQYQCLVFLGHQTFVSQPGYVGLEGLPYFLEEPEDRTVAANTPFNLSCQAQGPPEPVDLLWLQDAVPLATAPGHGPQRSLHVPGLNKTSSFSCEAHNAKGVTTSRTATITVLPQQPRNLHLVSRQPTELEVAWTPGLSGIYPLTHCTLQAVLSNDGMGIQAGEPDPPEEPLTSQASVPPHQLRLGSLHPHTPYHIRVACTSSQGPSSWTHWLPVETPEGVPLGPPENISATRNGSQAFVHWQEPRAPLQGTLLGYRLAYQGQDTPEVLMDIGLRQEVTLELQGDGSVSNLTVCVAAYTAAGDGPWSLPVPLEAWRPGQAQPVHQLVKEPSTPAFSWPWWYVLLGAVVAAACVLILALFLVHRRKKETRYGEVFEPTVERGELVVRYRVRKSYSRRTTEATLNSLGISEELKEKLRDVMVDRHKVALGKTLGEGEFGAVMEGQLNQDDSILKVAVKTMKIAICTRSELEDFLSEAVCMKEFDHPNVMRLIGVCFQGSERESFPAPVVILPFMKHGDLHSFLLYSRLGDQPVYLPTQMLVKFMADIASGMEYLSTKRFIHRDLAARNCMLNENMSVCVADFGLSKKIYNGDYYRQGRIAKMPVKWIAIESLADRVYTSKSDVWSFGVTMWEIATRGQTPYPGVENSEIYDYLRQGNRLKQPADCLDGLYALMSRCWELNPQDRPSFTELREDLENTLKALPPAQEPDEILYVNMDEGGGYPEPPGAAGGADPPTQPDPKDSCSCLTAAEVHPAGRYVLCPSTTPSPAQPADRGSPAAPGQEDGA", "test": "flow cytometry on SN12C cells, goat anti-mouse Alexa 488", "experimental": "For cell surface binding studies, two fold serial dilutions of a 10 μg/m (6.66 10⁻⁸ M) primary antibody solution (1613F12, MAB154 antibody or mIgG1 isotype control 9G4 Mab) are prepared and are applied on 2.10⁵ cells for 20 min at 4° C. After 3 washes in phosphate-buffered saline (PBS) supplemented with 1% BSA and 0.01% NaN₃, cells were incubated with secondary antibody Goat anti-mouse Alexa 488 (1/500° dilution) for 20 minutes at 4° C. After 3 additional washes in PBS supplemented with 1% BSA and 0.1% NaN₃, cells were analyzed by FACS (Facscalibur, Becton-Dickinson). At least 5000 cells were assessed to calculate the mean value of fluorescence intensity.", "data": [{"binder": "B1", "values": [{"measurement": "EC50 (read off the curve)", "result": "~1", "unit": "nM"}]}]}
